Biological target: FGFR3 (UniProt P22607)
Experiment: phosphorylation enrichment, bacterial display (enrichment ratio); higher = better substrate or ligand; peptides without Tyr show the background
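Note: 11-residue human phosphosite peptides and single-mutation variants displayed on the E. coli surface, counted by deep sequencing, each peptide's frequency after selection divided by its frequency in the unselected input library; frequency after pTyr selection over input frequency; kinase dosed for 20-30% of maximal phosphorylation in three min.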

FGFR3, sequence (P22607 whole entry, looked up): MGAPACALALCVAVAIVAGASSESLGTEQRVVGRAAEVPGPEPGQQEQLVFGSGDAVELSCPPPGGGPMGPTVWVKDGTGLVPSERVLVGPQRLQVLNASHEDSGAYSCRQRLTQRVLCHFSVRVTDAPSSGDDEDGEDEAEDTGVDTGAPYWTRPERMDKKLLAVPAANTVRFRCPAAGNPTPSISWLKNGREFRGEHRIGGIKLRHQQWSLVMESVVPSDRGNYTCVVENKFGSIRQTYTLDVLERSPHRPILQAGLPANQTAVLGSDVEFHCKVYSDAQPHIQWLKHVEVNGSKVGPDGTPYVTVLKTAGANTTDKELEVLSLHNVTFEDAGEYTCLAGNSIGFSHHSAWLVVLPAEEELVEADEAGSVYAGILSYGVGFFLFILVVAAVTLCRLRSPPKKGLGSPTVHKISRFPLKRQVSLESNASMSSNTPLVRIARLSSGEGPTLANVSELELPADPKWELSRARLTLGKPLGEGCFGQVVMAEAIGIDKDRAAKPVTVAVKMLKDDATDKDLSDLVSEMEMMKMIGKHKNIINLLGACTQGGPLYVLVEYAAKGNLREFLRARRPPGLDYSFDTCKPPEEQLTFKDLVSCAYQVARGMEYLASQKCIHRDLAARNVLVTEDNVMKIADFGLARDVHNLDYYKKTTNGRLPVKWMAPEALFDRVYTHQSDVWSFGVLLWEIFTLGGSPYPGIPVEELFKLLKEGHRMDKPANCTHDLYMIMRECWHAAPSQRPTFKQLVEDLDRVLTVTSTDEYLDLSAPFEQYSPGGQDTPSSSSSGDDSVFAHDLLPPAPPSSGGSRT

In order of rising phosphorylation enrichment:
1. HRNGMYGLHQD [SGSH_Y89_Q85R]  0.421
2. RRNTPYSQTMK [TET2_Y819_S817T]  0.431
3. VKMLEYRGKDV [CASP5_Y74_L75R]  0.473
4. ELCSEYHKSRK [SPINK5_Y440_R441H]  0.53
5. TVSSDYLHPQY [CCPG1_Y569_F566S]  0.54
6. DYLEKYYKFGS [NNMT_Y24]  0.553
7. KENITYMKREQ [L1TD1_Y24]  0.554
8. ERDTVYSSSGV [NELL2_Y350_N347D]  0.584
9. QEMMEYRRQIQ [DES_Y324_H326R]  0.607
10. GYQPEYGQPAG [SYP_Y278_D277E]  0.659
11. GEDEPYSEPFA [APBA1_Y183_YF]  0.68
12. NGSKGYAYVHF [PABPC5_Y147]  0.718
13. CENNRYGMGTS [PDHA1_Y227]  0.726
14. RIAFQYGDTDL [MYBPC3_Y340_V342D]  0.737
15. CTTIHYNFMSN [TP53_Y234_C238S_YF]  0.745
16. SSVKLYRVFCD [FGB_Y266_P265L_YF]  0.749
17. PQDVTYAQLHS [LILRB4_Y412]  0.75
18. SVVVPSEPPEV [TP53_Y220_Y220S]  0.755
19. KNAEKYAEEDW [HSPA9_Y568_R573W]  0.776
20. KFFRVYQGQQP [MUTYH_Y494_V490F]  0.78
21. NTGFFYDLFGG [PTPN11_Y63_D61Y_YF]  0.786
22. LMLVLYGRIFR [HTR1A_Y215]  0.809
23. RPPFTYATLIR [FOXP3_Y342]  0.813
24. ANFTEYVATRW [CDKL5_Y171_YF]  0.814
25. TLNFCYQQVKS [PTK2_Y148_F147C]  0.884
26. TFVVLYDAELT [ERCC4_Y581_R576T_YF]  0.92
27. MDDDQYALLTA [EFCAB6_Y675_T680A]  1.2
28. AKKKMYSCKTK [AGXT_Y231_R233C]  1.64
29. QNKEDYAGLKE [GSTO1_Y139]  1.73
30. LTAEVYFPSIK [C5orf64_Y60]  1.88
31. TFRPPYFHRDC [HGD_Y333_N337D_YF]  2
32. ICFSDYVEVAD [PHACTR1_Y525_R521C]  2.26
33. EYQLPYYNTVP [BMPR1A_Y457_M460T]  5.15

System: Fer (mouse)
Experiment: as above

In order of rising phosphorylation enrichment:
1. DYLEKYYKFGS [NNMT_Y24]  0.369
2. TFRPPYFHRDC [HGD_Y333_N337D_YF]  0.422
3. SVVVPSEPPEV [TP53_Y220_Y220S]  0.426
4. KENITYMKREQ [L1TD1_Y24]  0.431
5. KFFRVYQGQQP [MUTYH_Y494_V490F]  0.431
6. HRNGMYGLHQD [SGSH_Y89_Q85R]  0.432
7. TVSSDYLHPQY [CCPG1_Y569_F566S]  0.442
8. ERDTVYSSSGV [NELL2_Y350_N347D]  0.451
9. SSVKLYRVFCD [FGB_Y266_P265L_YF]  0.469
10. KNAEKYAEEDW [HSPA9_Y568_R573W]  0.487
11. GYQPEYGQPAG [SYP_Y278_D277E]  0.487
12. VKMLEYRGKDV [CASP5_Y74_L75R]  0.495
13. TLNFCYQQVKS [PTK2_Y148_F147C]  0.501
14. ELCSEYHKSRK [SPINK5_Y440_R441H]  0.507
15. GEDEPYSEPFA [APBA1_Y183_YF]  0.512
16. RRNTPYSQTMK [TET2_Y819_S817T]  0.512
17. ANFTEYVATRW [CDKL5_Y171_YF]  0.515
18. NGSKGYAYVHF [PABPC5_Y147]  0.516
19. CENNRYGMGTS [PDHA1_Y227]  0.538
20. RPPFTYATLIR [FOXP3_Y342]  0.55
21. CTTIHYNFMSN [TP53_Y234_C238S_YF]  0.562
22. ICFSDYVEVAD [PHACTR1_Y525_R521C]  0.609
23. AKKKMYSCKTK [AGXT_Y231_R233C]  0.613
24. QEMMEYRRQIQ [DES_Y324_H326R]  0.644
25. MDDDQYALLTA [EFCAB6_Y675_T680A]  0.665
26. TFVVLYDAELT [ERCC4_Y581_R576T_YF]  0.669
27. PQDVTYAQLHS [LILRB4_Y412]  0.685
28. RIAFQYGDTDL [MYBPC3_Y340_V342D]  0.689
29. LMLVLYGRIFR [HTR1A_Y215]  0.768
30. NTGFFYDLFGG [PTPN11_Y63_D61Y_YF]  0.77
31. LTAEVYFPSIK [C5orf64_Y60]  0.963
32. EYQLPYYNTVP [BMPR1A_Y457_M460T]  1.94
33. QNKEDYAGLKE [GSTO1_Y139]  2.22

Biological target: Fes (UniProt P07332)
Experiment: as above

Fes, sequence (P07332 whole entry, looked up): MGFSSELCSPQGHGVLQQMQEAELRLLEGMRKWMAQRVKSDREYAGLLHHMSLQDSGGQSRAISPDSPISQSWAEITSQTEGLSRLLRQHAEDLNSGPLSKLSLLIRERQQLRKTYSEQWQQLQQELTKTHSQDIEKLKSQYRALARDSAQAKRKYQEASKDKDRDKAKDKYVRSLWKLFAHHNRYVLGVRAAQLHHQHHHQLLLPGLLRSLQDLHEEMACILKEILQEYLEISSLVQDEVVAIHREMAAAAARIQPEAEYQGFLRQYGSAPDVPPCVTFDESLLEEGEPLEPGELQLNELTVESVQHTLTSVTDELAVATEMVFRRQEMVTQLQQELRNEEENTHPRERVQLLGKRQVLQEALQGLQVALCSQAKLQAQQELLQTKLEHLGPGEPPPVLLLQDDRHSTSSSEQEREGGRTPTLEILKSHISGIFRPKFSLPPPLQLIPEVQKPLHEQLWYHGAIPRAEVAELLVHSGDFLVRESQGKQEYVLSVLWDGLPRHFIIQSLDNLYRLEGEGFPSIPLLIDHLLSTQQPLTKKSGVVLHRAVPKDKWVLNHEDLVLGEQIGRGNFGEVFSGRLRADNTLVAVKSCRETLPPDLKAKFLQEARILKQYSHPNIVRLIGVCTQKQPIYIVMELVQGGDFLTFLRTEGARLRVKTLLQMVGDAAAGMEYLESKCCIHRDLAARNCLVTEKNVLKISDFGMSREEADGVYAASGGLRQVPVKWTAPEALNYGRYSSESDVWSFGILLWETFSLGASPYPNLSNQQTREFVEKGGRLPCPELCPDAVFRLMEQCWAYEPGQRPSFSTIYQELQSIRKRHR

In order of falling phosphorylation enrichment:
1. LTAEVYFPSIK [C5orf64_Y60]  2.04
2. TFVVLYDAELT [ERCC4_Y581_R576T_YF]  1.61
3. QNKEDYAGLKE [GSTO1_Y139]  1.6
4. KNAEKYAEEDW [HSPA9_Y568_R573W]  1.56
5. ICFSDYVEVAD [PHACTR1_Y525_R521C]  1.55
6. CENNRYGMGTS [PDHA1_Y227]  1.36
7. MDDDQYALLTA [EFCAB6_Y675_T680A]  1.35
8. NTGFFYDLFGG [PTPN11_Y63_D61Y_YF]  1.31
9. TLNFCYQQVKS [PTK2_Y148_F147C]  1.28
10. RIAFQYGDTDL [MYBPC3_Y340_V342D]  1.24
11. CTTIHYNFMSN [TP53_Y234_C238S_YF]  1.24
12. LMLVLYGRIFR [HTR1A_Y215]  1.24
13. PQDVTYAQLHS [LILRB4_Y412]  1.22
14. AKKKMYSCKTK [AGXT_Y231_R233C]  1.19
15. SSVKLYRVFCD [FGB_Y266_P265L_YF]  1.12
16. SVVVPSEPPEV [TP53_Y220_Y220S]  1.12
17. GEDEPYSEPFA [APBA1_Y183_YF]  1.06
18. KENITYMKREQ [L1TD1_Y24]  1.05
19. EYQLPYYNTVP [BMPR1A_Y457_M460T]  1.05
20. ELCSEYHKSRK [SPINK5_Y440_R441H]  1.02
21. RPPFTYATLIR [FOXP3_Y342]  1.01
22. ANFTEYVATRW [CDKL5_Y171_YF]  0.947
23. QEMMEYRRQIQ [DES_Y324_H326R]  0.92
24. NGSKGYAYVHF [PABPC5_Y147]  0.904
25. ERDTVYSSSGV [NELL2_Y350_N347D]  0.883
26. GYQPEYGQPAG [SYP_Y278_D277E]  0.851
27. TFRPPYFHRDC [HGD_Y333_N337D_YF]  0.847
28. KFFRVYQGQQP [MUTYH_Y494_V490F]  0.842
29. DYLEKYYKFGS [NNMT_Y24]  0.768
30. VKMLEYRGKDV [CASP5_Y74_L75R]  0.737
31. TVSSDYLHPQY [CCPG1_Y569_F566S]  0.681
32. RRNTPYSQTMK [TET2_Y819_S817T]  0.626
33. HRNGMYGLHQD [SGSH_Y89_Q85R]  0.428

Biological target: Fyn (UniProt P06241)
Experiment: as above

Fyn, sequence (P06241 whole entry, looked up): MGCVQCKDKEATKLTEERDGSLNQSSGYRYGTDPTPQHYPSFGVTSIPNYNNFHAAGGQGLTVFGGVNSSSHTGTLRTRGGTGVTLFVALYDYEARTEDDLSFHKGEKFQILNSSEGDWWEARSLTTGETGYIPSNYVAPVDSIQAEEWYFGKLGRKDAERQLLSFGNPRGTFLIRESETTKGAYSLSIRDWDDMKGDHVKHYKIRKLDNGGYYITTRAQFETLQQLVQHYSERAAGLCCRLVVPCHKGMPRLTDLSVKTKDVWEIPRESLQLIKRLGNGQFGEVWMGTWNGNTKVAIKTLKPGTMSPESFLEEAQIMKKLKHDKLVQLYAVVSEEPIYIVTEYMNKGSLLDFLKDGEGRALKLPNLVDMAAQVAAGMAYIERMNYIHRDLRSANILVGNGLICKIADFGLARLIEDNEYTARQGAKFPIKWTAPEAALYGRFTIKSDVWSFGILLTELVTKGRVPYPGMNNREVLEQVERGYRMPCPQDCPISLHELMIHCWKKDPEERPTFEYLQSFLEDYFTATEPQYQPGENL

In order of rising phosphorylation enrichment:
1. TVSSDYLHPQY [CCPG1_Y569_F566S]  0.365
2. AKKKMYSCKTK [AGXT_Y231_R233C]  0.417
3. GYQPEYGQPAG [SYP_Y278_D277E]  0.426
4. TFRPPYFHRDC [HGD_Y333_N337D_YF]  0.427
5. RRNTPYSQTMK [TET2_Y819_S817T]  0.428
6. DYLEKYYKFGS [NNMT_Y24]  0.436
7. CTTIHYNFMSN [TP53_Y234_C238S_YF]  0.437
8. TLNFCYQQVKS [PTK2_Y148_F147C]  0.44
9. KENITYMKREQ [L1TD1_Y24]  0.443
10. SSVKLYRVFCD [FGB_Y266_P265L_YF]  0.468
11. VKMLEYRGKDV [CASP5_Y74_L75R]  0.476
12. ELCSEYHKSRK [SPINK5_Y440_R441H]  0.487
13. HRNGMYGLHQD [SGSH_Y89_Q85R]  0.49
14. QEMMEYRRQIQ [DES_Y324_H326R]  0.491
15. NGSKGYAYVHF [PABPC5_Y147]  0.493
16. SVVVPSEPPEV [TP53_Y220_Y220S]  0.511
17. CENNRYGMGTS [PDHA1_Y227]  0.518
18. KNAEKYAEEDW [HSPA9_Y568_R573W]  0.533
19. ICFSDYVEVAD [PHACTR1_Y525_R521C]  0.555
20. ANFTEYVATRW [CDKL5_Y171_YF]  0.57
21. GEDEPYSEPFA [APBA1_Y183_YF]  0.588
22. KFFRVYQGQQP [MUTYH_Y494_V490F]  0.623
23. MDDDQYALLTA [EFCAB6_Y675_T680A]  0.647
24. TFVVLYDAELT [ERCC4_Y581_R576T_YF]  0.712
25. LMLVLYGRIFR [HTR1A_Y215]  0.715
26. RIAFQYGDTDL [MYBPC3_Y340_V342D]  0.81
27. QNKEDYAGLKE [GSTO1_Y139]  0.919
28. LTAEVYFPSIK [C5orf64_Y60]  1.02
29. EYQLPYYNTVP [BMPR1A_Y457_M460T]  1.42
30. ERDTVYSSSGV [NELL2_Y350_N347D]  1.78
31. RPPFTYATLIR [FOXP3_Y342]  2.14
32. NTGFFYDLFGG [PTPN11_Y63_D61Y_YF]  2.42
33. PQDVTYAQLHS [LILRB4_Y412]  4.37
